Reference: patent publication US20030125231

Tested on: Histone III (type ss from calf thymus)

With “His-tagged Pim-2 (purified recombinant human Pim-2, expressed in E. coli)” the “Incorporation of 33P into Histone (in vitro kinase assay, 15, 30 and 60 min)” value was “purified recombinant Pim-2 is active in phosphorylating Histone”.
